In paper PMC7745063, “Investigating the reaction and substrate preference of indole-3-acetaldehyde dehydrogenase from the plant pathogen Pseudomonas syringae PtoDC3000” (Bioscience Reports, 2020):
Numbering of substitutions follows the chain as printed. Numbers in names are those of the source.

B1: AldA C302A mutant (enzyme)
chain: MTTLTRADWEQRAQNLKIEGRAFIQGEYTAAASGETFDCISPVDGRLLAKVASCDAADAQRAVESARSAFDSGAWSRLAPAKRKATMIRFAGLLEQNAEELALLETLDMGKPISDSLGVDIPGGARALSWSGEAIDKLYDEVAATPHDQLGLVTREPVGVVAAIVPWNFPLMMACWKLGPALSTGNSVVLKPSEKSPLTAIRIAQLAIEAGIPAGVLNVLPGYGHTVGKALALHMDVDTVVFTGSTKIAKQLMIYAGESNMKRVWLEAGGKSPNIVFADAPDLQAAADSAASAIAFNQGEVATAGSRLLVERSIKDRFLPMVIEALGTWKPGNPLDPATNVGALVDTQQMNTVLSYIAAGHTDGARLVAGGKQILQETGGTYVEPTIFDGVNNAMRIAQEEIFGPVLSVLTFDTAEEAIQIANDTPYGLAAAVWTANLSKAHLTARALRAGSVWVNQYDGGDMTAPFGGFKQSGNGRDKSLHAFDKYTELKSTWIKL
notes: source: E. coli BL21 (DE3), purified (Ni-NTA, Superdex-200 size-exclusion)
B2: AldA E267A mutant (enzyme)
chain: B1 chain with E267A, A302C
notes: as for B1
B3: AldA indole-3-acetaldehyde dehydrogenase from Pseudomonas syringae strain PtoDC3000, wild-type (enzyme)
chain: B1 chain with A302C
notes: also called wild-type AldA; WT; source: E. coli BL21 (DE3), purified (Ni-NTA, Superdex-200 size-exclusion)
B4: AldA E267Q mutant (enzyme)
chain: B1 chain with E267Q, A302C
notes: as for B1

Experiments:
[1] = molecular target: the molecule itself; test: crystal structure; AldA C302A with IAA and NAD+, hanging drop at 4°C, 24% PEG-1000, 100 mM Tris/HCl pH 7.0; 2.85 Å; eight monomers in the asymmetric unit
[2] = molecular target: the molecule itself; test: SEC

Row | Protein | stoichiometry N [1] | stoichiometry N [2]
1 | B1 | 4 | 
2 | B2 |  | 4
3 | B3 |  | 4
4 | B4 |  | 4
